Assay results: patent publication US20240294590A1

How the values were obtained:
[1] = molecular target: Histidine tagged PSMGFR peptide (MUC1* extra cellular domain peptide); assay: SPR, Biacore 3000, His-tagged PSMGFR peptide on NTA-Ni SAM chip
[2] = molecular target: Histidine tagged PSMGFR peptide (MUC1* extra cellular domain peptide); assay: SPR, Biacore 3000, His-tagged PSMGFR peptide on NTA-Ni SAM chip; hexamer signal divided by 3

Chain of Histidine tagged PSMGFR peptide (MUC1* extra cellular domain peptide) (peptide, as listed by the source): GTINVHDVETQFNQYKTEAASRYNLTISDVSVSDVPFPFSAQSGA

amount of binding (RUs) [1]: 100 RU
fold less bound than NM23-S120G-dimer [2]: 12 fold
Substance: NM23-S120G-hexamer (non-refolded soluble-fraction preparation of NM23-H1 S120G) (from UniProt P15531 1-152) (ligand)
